Assay: soluble on expression in E. coli; label from the status in PepcDB or PDB records

Row | Sequence | soluble on expression in E. coli
1 | MSLAPFVAKDIRVDGVQGDLEQQIRASLPVRAGQRVTDNDVANIVRSLFVSGRFDDVKAHQEGDVLVVSVVAKSIISDVKIKGNSVIPTEALKQNLDANGFKVGDVLIREKLNEFAKSVKEHYASVGRYNATVEPIVNTLPNNRAEILIQINEDDKAKLASLTFKGNESVSSSTLQEQMELQPDSWWKLWGNKFEGAQFEKDLQSIRDYYLNNGYAKAQITKTDVQLNDEKTKVNVTIDVNEGLQYDLRSARIIGNLGGMSAELEPLLSALHLNDTFRRSDIADVENAIKAKLGERGYGSATVNSVPDFDDANKTLAITLVVDAGRRLTVRQLRFEGNTVSADSTLRQEMRQQEGTWYNSQLVELGKIRLDRTGFFETVENRIDPINGSNDEVDVVYKVKERNTGSINFGIGYGTESGISYQASVKQDNFLGTGAAVSIAGTKNDYGTSVNLGYTEPYFTKDGVSLGGNVFFENYDNSKSDTSSNYKRTTYGSNVTLGFPVNENNSYYVGLGHTYNKISNFALEYNRNLYIQSMKFKGNGIKTNDFDFSFGWNYNSLNRGYFPTKGVKASLGGRVTIPGSDNKYYKLSADVQGFYPLDRDHLWVVSAKASAGYANGFGNKRLPFYQTYTAGGIGSLRGFAYGSIGPNAIYAEYGNGSGTGTFKKISSDVIGGNAIATASAELIVPTPFVSDKSQNTVRTSLFVDAASVWNTKWKSDKNGLESDVLKRLPDYGKSSRIRASTGVGFQWQSPIGPLVFSYAKPIKKYENDDVEQFQFSIGGSFEGHHHHHH | not soluble
2 | AHHHHHHGSTIKAPTLNVPGLGVDPLTQRIKEKEKKWKYKIAVLSGKGGVGKSTVAVNLTAALAKMGYFVGILDADIHGPNVAKMFGIGNTDIYAEKFEDGHFEMIPPTVDFMGQVTPIKVMSMGMMVPEDQPIIWRGSLVTKAIKQLLGDVMWGELDFMIIDFPPGTGDEILTVVQSIQLDAAIVVTTPQEVALLDTGKAVNMMKKMEVPYIAVIENMSYLICPHCGNKIDIFGEGGGEKLAEKEGVDFLGKVPIDLKAREASDLGIPIVLYGDTPAAKAFMEIAEKLVNKLKEIKGDGREK | not soluble
3 | MEALILEPSLYTVKAILILDNDGDRLFAKYYDDTYPSVKEQKAFEKNIFNKTHRTDSEIALLEGLTVVYKSSIDLYFYVIGSSYENELMLMAVLNCLFDSLSQMLRKNVEKRALLENMEGLFLAVDEIVDGGVILESDPQQVVHRVALRGEDVPLTEQTVSQVLQSAKEQIKWSLLR | not soluble
4 | MGSDKIHHHHHHMTIYYNEMVDGGLVREPYAMLSDWIETMPAEIRQMKQAEAEALFRRIGITFAVYGEGGDPDRLIPFDMMPRVFLQGEWRRLERGIKQRARGLNAFLRDVYGRGEIVRAGRIPAPLVYRNAAYEKAVVGFVPPRGVFSHIVGIDIVRTGRDEFHVLEDNCRTPSGVSYMLENREIMMRMFPALFRNNRIEPVDQYPELLRRTLASVAPAKCEGEPTVVILTPGHYNSAYYEHSFLANLMGVELVEGSDLFVDGGFVYMRTTQGPKRVDVIYRRIDDQFLDPLCFRRDSMLGVPGLMDVWRSGGVSIASAPGAGVADDKAVYTFVPEMIRFYLGEEPILNNVQTWTLWKDDDYRYVMANLKDLVVKEVHGSGGYGMLIGPRATKAEIEAFAERIKADPGNYIAQPTLALSTSPTFVDEGVAPRHVDLRPFCLCGDRIELVPGGLTRVALREGSLVVNSSQGGGVKDTWVLSE | not soluble
5 | MNNSNENDVILAWWDWGHFITYYARRSPIAQGGPSVGVALYLLGKLNENWAINLGVDYVIVSYYDFLKFGAILSTANLSKRYNIRGYGLVVLPLRASTGALIFENRGYRAIVRHDKSWNAVIIYNGQMIYPRKLYVEHKEGVQEIKPPESNSNTYLYVNLNYGLEHHHHHH | not soluble
6 | MTSYSLEDFNTPLECAPLARWERKRKEQLDRTSKTPNKTPQGDRFIPNRNVMNIEVSRLNLQQEYYGKENNQNSSSLLDSHMDNVEWNSGKDSPACHHYQSALASSLLQNSYHEEHPQSKILTFKQKAPKPQEGYVNSLKVLYSQNMPQISEQRKRMIRHIPQTPDRILDAPELVDDYYLNLLDWNHENILAVALGSSVYLWNASTGDIQELCNVSQDEMICSVSWVPDGHHLAVGTSMKDVQLWDTQRGRQVRKMHSHSSRVGCLAWNGPILSSGSRDTTIHHHDVRIAQHHVETLRGHEQEVCGLKWNVDGSQLASGGNDNLLMIWDHFHSNQPKYRLDHHHAAVKAIAWCPWQTHLLASGGGTADRTIKFWNTTTGACLQSIDTKSQVCALIWNRHDKEIVSSHGFSQNQLIVWKYPSMVKMAELTGHTSRVLHLSLSPDGQTVVSGAGDETLRFWRVFEASESKLKSSNKTLGHSQKSIMRTCNIR | soluble
7 | MTKIFIRDDNGGTEMSQDPFQEREAEKYANPIPSREFILEHLTKREKPASRDELAVELHIEGEEQLEGLRRRLRAMERDGQLVFTRRQCYALPERLDLVKGTVIGHRDGYGFLRVEGRKDDLYLSSEQMKTCIHGDQVLAQPLGADRKGRREARIVRVLVPKTSQIVGRYFTEAGVGFVVPDDSRLSFDILIPPDQIMGARMGFVVVVELTQRPTRRTKAVGKIVEVLGDNMGTGMAVDIALRTHEIPYIWPQAVEQQVAGLKEEVPEEAKAGRVDLRDLPLVTIDGEDARDFDDAVYCEKKRGGGWRLWVAIADVSYYVRPSTPLDREARNRGTSVYFPSQVIPMLPEVLSNGLCSLNPQVDRLCMVCEMTVSSKGRLTGYKFYEAVMSSHARLTYTKVWHILQGDQDLREQYAPLVKHLEELHNLYKVLDKAREERGGISFESEEAKFIFNAERRIERIEQTQRNDAHKLIEECMILANISAARFVEKAKEPALFRIHDKPSTEAITSFRSVLAELGLELPGGNKPEPRDYAELLESVADRPDAEMLQTMLLRSMKQAIYDPENRGHFGLALQSYAHFTSPIRRYPDLTLHRAIKYLLAKEQGHQGNTTETGGYHYSMEEMLQLGQHCSMAERRADEATRDVADWLKCDFMLDQVGNVFKGVISSVTGFGFFVRLDDLFIDGLVHVSSLDNDYYRFDQVGQRLMGESSGQTYRLGDRVEVRVEAVNMDERKIDFSLISSERAPRNVGKTAREKAKKGDAGKKGGKRRQVGKKVNFEPDSAFRGEKKTKPKAAKKDARKAKKPSAKTQKIAAATKAKRAAKKKVAELEHHHHHH | soluble
8 | NRANPDPNCCLGVFGLSLYTTERDLREVFSKYGPIADVSIVYDQQSRRSRGFAFVYFENVDDAKEAKERANGMELDGRRIRV | soluble
9 | SHVEYSRITKFFQEQPLEGYTLFSHRSAPNGFKVAIVLSELGFHYNTIFLDFNLGEHRAPEFVSVNPNARVPALIDHGMDNLSIWESGAILLHLVNKYYKETGNPLLWSDDLADQSQINAWLFFQTSGHAPMIGQALHFRYFHSQKIASAVERYTDEVRRVYGVVEMALAERREALVMELDTENAAAYSAGTTPMSQSRFFDYPVWLVGDKLTIADLAFVPWNNVVDRIGINIKIEFPEVYKWTKHMMRRPAVIKALRGE | soluble
10 | MGSSHHHHHHSSGRENLYFQGSPVEKYNFKAEVNKVMDIIVNSLYTDKDVFLRELISNASDACDKKRIILENNKLIKDAEVVTNEEIKNETEKEKTENVNESTDKKENVEEEKNDIKKLIIKIKPDKEKKTLTITDNGIGMDKSELINNLGTIAQSGTAKFLKQIEEGKADSNLIGQFGVGFYSSFLVSNRVEVYTKKEDQIYRWSSDLKGSFSVNEIKKYDQEYDDIKGSGTKIILHLKEECDEYLEDYKLKELIKKYSEFIKFPIEIWSE | soluble
11 | AKQAAQSTFNSFHEWAKQAEAMRNPSRMDIYKIYKQDAPHSHPMSDEQQEEFLHTLKALNGKNGIEVRTQDHDSVRNKKDRNLDKYIAESPDAKRFFYRIIPKHERREDKNQGRLTIGVQPQYATQLTRAMATLIGKESAITHGKVIGPACHGQMTDSAVLYINGDVAKAEKLGEKLKQMSGIPLDAFVEHTPLSMQSLSKGLSYAESILGDTRGHGMSRAEVISDALRMDGMPFLARLKLSLSANG | not soluble
12 | MGLFDGLLGNATQNNNETAEKELRDVLIPNEKVDMAFTLVRDLIVFTDKRLILVDKQGITGKKVDYKSIPYKSISRFSVETSGHFDLDAELKIWISSTELPSVSLQFRKDKDIVAIQQALAAAVLS | not soluble
13 | LPSGIIIKGIGGFYYVKTENGIYECKARGVFRKDSKIPLPGDEVVISVIDEEKKKGYIEEICERKIQLIRPAVANINQIALVVSVKSPLPDFVLLDKLLITVMQKELNAIICINKIDLDEGYKDVIIDCYKGTGVETVCVSSVLNVGFEQLAKMLEGKTTVFAGQSGVGKSTILNKILDSYVMETGEISDKIERGRHTTRHAELLELKSGGFVVDTPGFSSFELSEIEPKELQNYYPEFRDYIGKCRFAGCSHISEPGCMVKSALENGMINKDRYGRYIIFYNMLKDKQRRKYS | not soluble
14 | MSLNDTVTVRISFAVNIATRVIAEVPLFSLTKPSHQELLQKIAEQSRSPFNYPDVGASLCEFPSGYEHHHHRVRLGRGQEVFDRAKEALGNWRQFDVGWVEAIPSDTSITVGNTIAIRVRIFGVWAMAFDRIVDVYGEQDGECRRFGFSVGTLTEHPEQGEERFSIEIDREDHVDYEVAAFFRPNTLAAKMAWPVLHRRFNRFRNQSAEAMQLACKLGPSSEGHHHHHH | not soluble
15 | MIKIYNRKTKAYDVEQVAGLKYINWSYASPIGKSFLELFIKKKMFSKLYGNFCDSSLSKKKIKAFIDEFNIDMSLCNKNIDEFENFNDFFARTLTPEARPIDYSENILISPGDGRLSAFENIDLDKVVQIKGYTYSLKELIDDPKVAEEFEGGTCLILRLCPTDYHRFHFVDSGTCSESKKISGFYYSVNPIALNNVSELFCKNKREWSIFNSDNFGEILHVEVGATCVGTILQTYSPEKRVKKGEEKGYFKFGGSTTILFFKKDTIKIDSDIVEQTKLGFETKVNMGETIGHKLEHHHHHH | soluble
16 | MIRIDSVTKRYPDGTVAVDRLSLEIPDRSITVLVGPSGCGKTTTLRMINRMVEPSEGTILLDGADITKQPVNTLRRSMGYVIQNAGLFQHRTIVDNIATVPRMLGWGKERARSRARELMERVGLDASLARRYPYQLSGGQQQRVGVARALASDPPVLLMDEPFSAVDPVVRKGLQEELLRIQDELGKTIVFVTHDIDEAIRLGTMVAVMRTGGHLAQFAPPAELLSAPADAFVEDFLGTDRGIRRLSFFPSAGLELLTTPVVAIDSTAEQIAARGTPDVPYLLVTDVDGKALGWSEPKDLTAGKVVPERLLPYGRPFESGKDSLRAALDCAVLSPTGWAVAVDGTGRVVGVVSQETIGEAIRGAHAERRKADLAGLEHHHHHH | not soluble
17 | MGSDKIHHHHHHMRLSELKDAGRSPTLPLSITLVDAAGSADLQLLTLLRVLPGQRYVGAGVWRGTPVLAKLLVGGNAARHFQRELQGVKLLAEQGLTTPTLLADGLKEGEGGWLLFEFLDGAQSLADAWAAVENLPVLADEQHLVLGEALTAVAHMHAQGLWQEDLHLDNLLRHAGKLYLIDGAGIRAETPGQQLSRPRVLENLGVFFAQLPKRLEPFIEELLVHYLLANAEHALPLEALQKQVDKVRNWRQKDYLDKAGRECSLFSVQRTLSGLQAIRRSEVEAMQPVLEQADALIDKGHLYKTGGAASVARIEVNGRQLVIKRYNIKNTAHWFKRFWRPSRAWHSWIEGHRLEFLDIATPRPLAVLEQRVLGLRSRAYLVTEYVDGPDLTACFAPHVESGDAPEEQVDALVHVMQQLIRERISHGDFKGHNLFWHNGQWSLIDLDAMCQHATQLSFAPAYARDRARLLRNWPTGSALHQRLDRLLPKLVD | not soluble
18 | GMKDNYDAPESMLTGRVMYNGEALQLRGNEAVQLQLYQHGYAKHDPINVYVNQDGMYSANLFDGEYQMITKSGNGPWTSEGRDTINVTVAGNTVQDVEVTPYYLVRDAQMTLEGNKVNASFKVEKVAGGGIDRVFFMLSTTQFVNDAEHNVDRYDETDNLDAYDETGKLYTFATRDYTDNSMFQTALKRGTLFGRICIWPKGSDQGIYSKVIRLK | soluble
